Data reported in publication PMC6882858, “Seryl tRNA synthetase cooperates with POT1 to regulate telomere length and cellular senescence”.

What follows are binders tested against SerRS (seryl-tRNA synthetase) (human, UniProt P49591 1-514) (assay: EMSA; 5 mM MgCl2, poly(dG-dC); 20 mM Tris-HCl pH 8.0, 60 mM KCl, 5 mM MgCl2, 0.1 mg/mL BSA, 10 ng/uL poly(dG-dC), 1 mM DTT, 0.8 pmol labeled DNA, 30 min, room temperature; 5% native PAGE). Conditions: protein: recombinant; tags: His6 (pET20b; Ni-NTA); chain copies: 2; label: 5' 32P; blunt.
Chain of SerRS (seryl-tRNA synthetase) (P49591 whole entry): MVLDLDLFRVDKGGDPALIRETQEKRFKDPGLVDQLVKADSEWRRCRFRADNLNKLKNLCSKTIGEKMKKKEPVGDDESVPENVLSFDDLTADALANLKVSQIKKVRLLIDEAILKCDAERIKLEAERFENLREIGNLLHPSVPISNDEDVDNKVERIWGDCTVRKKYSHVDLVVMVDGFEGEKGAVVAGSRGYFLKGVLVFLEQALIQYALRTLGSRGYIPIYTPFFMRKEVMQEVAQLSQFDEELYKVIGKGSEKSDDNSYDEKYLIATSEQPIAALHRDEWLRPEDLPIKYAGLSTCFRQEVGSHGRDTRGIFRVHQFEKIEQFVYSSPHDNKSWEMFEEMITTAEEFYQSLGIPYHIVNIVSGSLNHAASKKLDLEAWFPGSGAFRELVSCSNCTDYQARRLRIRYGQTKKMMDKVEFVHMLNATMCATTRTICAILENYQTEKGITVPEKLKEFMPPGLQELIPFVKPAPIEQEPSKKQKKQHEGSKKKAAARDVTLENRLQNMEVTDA

| Binder | binding result |
| --- | --- |
| Telomere [TTAGGG]5 (dsDNA) DNA 1: TTAGGGTTAGGGTTAGGGTTAGGGTTAGGG DNA 2: CCCTAACCCTAACCCTAACCCTAACCCTAA | binds |
| VEGFA promoter (dsDNA) DNA 1: GGCGGGGCGGAGCCATGCGCCCCCCCCTTT DNA 2: AAAGGGGGGGGCGCATGGCTCCGCCCCGCC | binds |
| Control random DNA (dsDNA) DNA 1: TCGAAGTCGAAGCATGGGTCGAAGCATGGG DNA 2: CCCATGCTTCGACCCATGCTTCGACTTCGA | no binding |
